# Results: the DeepSol protein solubility set
# Assay: soluble on expression in E. coli; label from the status in PepcDB or PDB records
row,Sequence,soluble on expression in E. coli
1,MGSDKIHHHHHHMPLVLIRKSDYSYETLKPLIFGMLDRLGGHRMAPGSRVLIKPNLLTPATPRQAILTHPFIVRAAVEYALNQNARPLVADSPAMGSFSKILRDSGIQEALAPLKVDYRPFQDSLKIDIGEPFGSIDIAREVIEADFIINLPKFKTHSQMLLTLGVKNLFGCIVGYRKPEWHMKTGVNRPLFARLLVQLYHRISPAFTILDGILALEGEGPGKRGTPKGGWPAPRQRQRPGPRQDRLPDT,not soluble
2,MGHHHHHHSHMGSELIGRLAPRLGLAEPDMLRKAEEYLRLSRVKCVGLSARTTETSSAVMCLDLAASWMKCPLDRAYLIKLSGLNKETYQSCLKSFECLLGLNSNIGIRDLAVQFSCIEAVNMASKILKSYESSLPQTQQVDLDLSRPLFTSAALLSACKILKLKVDKNKMVATSGVKKAIFDRLCKQLEKIGQQVDREPGDVATPPRKRKKIVVEAPAKEMEKVEEMPHKPQKDEDLTQDYEEWKRKILENAASAQKATAE,not soluble
3,MAHHHHHHMSSKKQDASAELLSELRAVIVSGGSMGTLDEQKVRSVVEKTNESYACIQSIATNPYADLTQPYYVSSVNYYRAKCLRDKRCLLTYLLWRQKQVAKAWWSVRDNLLEGSLSAAEAKYLSDYQGIMVEYMTSFDVPLDLRAYLWRPPSVRQLEVRGRCHYEFRSSVSGKTIIINIGDQLFLSFEEAEPLIQQGIVELVGH,not soluble
4,MAHHHHHHMVENEVYNRDMRIVRSRERLDGRPTLRSFFNKDGLLLKTYGWIVRNAVGLIVLIHGLNSHTRFSFLRHNVHVFNNRAILMDADNYYIYKNSWIEHFNKNGYSVFGIDLQSHGESEGWENLSLNVKEFDDLVYDVLEYIQKVQDDNARYMNYSSSSYSSSSSRSNSSSNSSSNSGSNSNSNSNSNSRGGESPRNDNSANRMIAPLPVYLIGQSMGGNVALRALQIVGKYRGLNRRLNIRGCVSLSGMIAVEALGLPSSYIYKSFFMPLSRFLSDFLPTLRLLCEMPYKRFQYIRDIGRFDTMRYRRGITCRFAYELLKAMDNLDHDMRFMPRDIPVLFIHSSKDKLCYPGGVVSFYNRLNIRNKELHMLNYMEHMLTMEPGNERVLSKIMNWLYNMSRPQRITA,not soluble
5,STSGTSVINDKVLQYETFISEVLRRDLQKVLEQRDAVYEKIAQYLQLKNTIQSIQGSGSKELKTDVDLGCNFYVQAHVPDASRIYVAVGYGFFVEFTHVEALKFIEKKTNQLTEYTEVLTKDAAKIKANIRMVLEGLRELQGLKDLPEDRRREVF,soluble
6,MTVLAQLYYKYGTMNSGKTIEILKVAHNYEEQGKPVVIMTSSLDTRDGFGVVASRIGMRREAVTITDDMDIFAYIENMFKKPYCILIDESQFLSQKNVYDLARIVDELDVPVMAFGLKNDFQNHLFEGSRELLLLADKIEEIKTICQFCSKKATMVLRTENGRPVYKGNQIQIGGNETYIPVCRRHYFHPPIKALEHHHHHH,not soluble
7,MDNLVDIDEDGTQEKLSVNSTPYQTQECVLYGSIFAKNVPDLERRLAGLCDPGCEEFFEHEMSFSLRSSGIMDIKTDIKLRRRFRTEHRIQNYWQLKYIGVPEPDQKCPTIVRKEISSLVHSQDMMTYAKSLGLRMDYEYMTQGKLWTKGNIKILHSILTSTSRAGTYDSNSIKSVSDSALVEISISLPESAEYMPAAKSLRDFADQLMPLVNMEKVDYWKKMFPAQAAPRR,soluble
8,MTSLLGGNFTEALHTVLSNQLNVMSQKTSDSEAPTTFSSSSSSDSPPYDPMSLVSAGISDQNGLMDMFKDGLFATLVPPTDVANSDTASSESPEPAAQSHEAAEETGGTEEQQAAALSLIQSFGTPIPSKFEDIESQFFSEATIRDLMPVLASVQGSPPHNQNQLSFGSTSSPSAWARNAGRKKSHPVWDFFKDMKDSTGAGGVICLHCSWSGDDRSPNNLRTHLKKFHSDDGIFNRFSEKLAKMARRKQQESTLVIDPSHSKDDSAFFEGSSGSDAPSTIDTTQLMALLEQSAAAAAAAAAASSSENPITSSLLKKDRTTTTTTEKELSPLTAARASEILFAAGMRPHKKTSEIWEHYKCLNEKQNVECIYCWKVLKRNDSSTKSMWGHMNAYHQDILRDGTTRKKVKRPANGLDFDETPTQPYVKRVRGGAGSSSSLPSMVKMDQKPMLDSMAFLQQLQQSGSLTEADFSSFANGSSLNFLDSLPKSSEVININSGFVKKEEMEEDTENHVEAASSSSSDERIKSETPDTYGSPNTSTTDQNEQLAAFVSSLSNSNPMMFAMLNAAGNSTSSAPAPPKSSTSQQRSSSPPSAHDTSNGSMSPSKVDKDPSSFSLSEGHCAAQLMSMALDLEMTMSYHKRRSEIELCFESNRTVDESQGAASRKVICLTDLGKEIKITERINGSVKDTELWVKTDFNQFHWAIRGKCQKSADASRVPPLVVKPRSSRRSPQPVRRRPPGPRDVSSPTHSFLMRWSFLCTL,not soluble
9,MIIFSGGTGTPKLLDGLKEILPEEELTVVVNTAEDLWVSGNLISPDLDTVLYLFSDQIDRKRWWGIENDTFGTYERMKELGIEEGLKLGDRDRATHIIRSNIIRDGASLTDSTVKLSSLFGIKANILPMSDDPVSTYIETAEGIMHFQDFWIGKRGEPDVRGVDIRGVSEASISPKVLEAFEKEENILIGPSNPITSIGPIISLPGMRELLKKKKVVAVSPIIGNAPVSGPAGKLMPACGIEVSSMGVAEYYQDFLDVFVFDERDRADEFAFERLGCHASRADTLMTSTEKSKELAEIVVQAFLEHHHHHH,soluble
10,MGSDKIHHHHHHMPETLNLNYYYGNEADQYSFYRIPKTLLTDRRYKGVSLEAKVLYGLLLDRMGLSARNGWLDNNGRVFLYFTQEEAMTMLGCGKDKVTKLFRELEGIGLMERKKQGQGHPARIYVKNFILEPEPTAPVQTAENQQSRPLPSAAVKTAEKPQSAPRKTSGQECGISAPNNTDINKTEKSDTDLSILPPTPSAVSSPAGKRAPRRMGLDEMESYRELIMENIDYDILLERYPYEKDLLDGYVELMLEVCCSTRESVRICGQEVPTEVIKSRFLKLNSEHIGYVMDSLKSNTAKIGNIKAYTLAALYNAPVTMGQYYTSLVSHDMAHGLLSG,not soluble
11,MPLFKERNCSVSIVLDSRTRRKNAYEFPLSLRFTIDRKFFYLTVGSSFSEKKFSDICNATKCKSENYKLQKEWKDTFVPKYKKVLSNLNKGGILTFEMVRQCIIGEDVVLSEEETTKSQSFISIWEQVINGFKTDDGGARFTTAESYECALKSFRKILGANTIKGFCISAAEIQKWKDGMHNGVKDENGAVVGKISDTTVGIYLRCCRAVWNRCVHEGFLKDIPYPFSNKKEKGLVSIPKSAKRKQNFLNVAQMTELYNLFVSKEYPEHWTEEYTQRAHYSLGLFLAQYLCNGFNMADAGRLTYDNYYYKTDGKAFRFNRKKTSRRSADGSEVIVPIIPPLQYVLDEIAAPPTRDGFVFPDILKGAETEELRRKYTVQENSNVKDRVIKICHEALHWDKSICPSGTWCRHSFATNLHNAGVDMDYISESMGHASSDHAITQIYIEHYPLDIQMQNNSKLLNLGETSERDALLAKLANMSTEELAKLFA,not soluble
12,MNPDNLAKLIDELSAMFHPTERDRPHGRWVEAPKSAPPSKRRRSKTAYQLKITLNGIRPPIWRRVLVPGHATFHELHLIIQEAMGWEQAHLYEFDFGSVLIGIPDGWDSFQLEKELMDARRIPLQQWLTEEKQKFLYIYDFGDYWRHTVTVEKIETLPKPLERAACLKGKRACPPEDCGGVYGYLELLEAAAQKDSLADPELRELVDWMYDMKGEDFDPDAFDVEEANERLAYIRL,not soluble
13,MVGGGLSTDIAGGRTMTCEFRNSRCISDDDDLIRMKEDDTETQKSEFHRKASGFFLRGSGYCRSIFRVSENLEKDWQACNRRAYMSGLVDYQSMARKAYEKLQELGISRHVTPLFAENVTVPIPGVVFLDCVVNDMTLISRIAGLVARAAFHIKNESPQHGLIEVGAPYNLVDNISYPGLIRFCGKVRNNLGNNYNIQCDIFQMCQFGARSLGSVHNTITVTVAAAAPIPNLVPRGILAPPPPPPPLPLPPVRRRAPKVLNLQKFIDAYQPVQSTGYPIGTPAAAAAVEKESAAPVVPENAEKEVAPKIAQKLELCGTPCKIKAEPEDEDIIILKHIAPNTDGGVKRVGSRNKIGKRSQKLKTRRL,not soluble
14,MNIDVEFHIRHNYPWNKLPANVRQSLGNSQREYEKQVVLYSIRNQLRYRNNLVKHVKKDERRYYEELLKYSRDHLMLYPYHLSDIVCYVCL,not soluble
15,MKTEHKQVVVVGAGPSGSTVSALLKSRGIDVVVIEKATFPRFSIGESLLPACMEVVELAGMTEAVKQHGFQFKDGAAFRRNGVYTHFDFTDKFTAGPGTTFQVQRASFDKVLADSAAEQGVDIRYQHELVSLAFEGKKSRLEVVGPDKQAYQIEADFVLDASGFGRVLPRLLDLEEPSCLPPRKAIFTHIEDHISPQEPEYDRNKILISVHPENHDVWYWLIPFSNGTCSFGVVGEPEFFEQYPEDKLAALQQLANEEPGLASLLRNAKYPNPVGELGGYSANVKRLATEHYALLGNAGEFLDPVFSSGVTIAMKSAQFAADCVVRQLNGEVVDWQEEYSERLMVGVNTFRTYVEGWYNGTLQDVIFYQAPNPRIKQMISAILAGYAWDTENPYVKQSEQRLSTLAELVRGEGFLEHHHHHH,soluble
16,MSLLKKIERAQQLLKKEAAVFRCPTCHEPMHLEGVGLICQQRHQFDLSKKGTLYFLNHGVQTEYNKKMFTSRGKMIQSGMYAPVLNKIMHYLPQNKTVVDVGCGEGSFLAELSQAGLSGLKIGFDLSKEGIYLASNQPIDAFWCVADLTNLPFANEGLDTILNIFSPSHYQEFRRVLKADGTVIKIIPEENYLKELRAAFYPNDEKKQSYSNQKVVQRFAEELAVEVDERITYCFDIPEERRLDLLEMSPLEWQVSQEVKAELQQRPLEKITIDVRLLVGRKREGHHHHHH,soluble
17,MGSDKIHHHHHHMLIISDAHANIHPLKYVIQREKFDKIVFCGDAVDYGPNPGETLDLLKENADVMVSGNHDYAAAYSVDCRCGEENHELSVFTRENITLKKLGKNDISFLRSLPNRMDMEIDGMKFQVMHGSPRDELYGYMYPWSVQDHLRSMLGSPLDPANYVVGHTHYQFLIRYAGNLVINPGSIGQPRDNPMPSYAVYDSSRNSVEFPRFDYDRSKLKEDIRSIISDQEILSGLYRLFSL,not soluble
18,MGSDKIHHHHHHMSNIKVLIQASSRSWAGGRDICMGLVNGEIAIVRTIKRALTAFPEAQFCLVAPEFDRGGELKGIVDEIADKRLQAFYGFDESPLSRMVAASSELKDDDFIVRVDGIHFCFDTNLSQQMVSLAQKNNLDCIKLPADFPVHFSSEVFRVGALRELVKILDKPELAKFHVHPKTYFELNRYDYKFEHLGSLPQYSDDYLRECRQLAQAIYEIPRQEVNSHRIASGDRLGYHYQLALKYLKSSMKVLDIACADGYGVRMMSTSLATVHGADLDPESVAYAKAHSSQKNVAFFVEDITDMSFDDDSYDAVTSFETLEHVPEEACLKELQRIIKPGGMLVLSTPQNSYGHIPVNSCHIVEYSLDYLLNLVGQYFHIVKVIGIKAGIIHDDADPYGTNTVLVCIKPIR,not soluble
19,MRLNFAYPATGLQKSFEVDEEKKLRLFFEKRMSQEVAIDALGDEWKGYVVRIGGGNDKQGFPMKQGILTNGRVRLLLKKGQSCYRERKNGERKRKSVRGCIVDANMSALSLVIVKKGDGEIEGLTDSVLPRKLGPKRASKIRKLFNLTKHDDVTKYVITHDKTFPDGVTKTIAPKIQRLITPARIARKKYLLRQKRNQKIKMRDDAAAYHKLLAKYSKEEHDAKIARRRSSASHHSESEVKKTSKK,not soluble
20,MSLSFSMKIKNIPYYVATRVVKRIQSWLGLNTLGARAIVTNAEGHVLLVKHTYQPHWYLPGGGVKKGESTKAAVIRELHEEVGLVVAEQDVILFGIYHHKYLGVNDYPVIYIVKNFTSHVTHSGEIEQIGWFSLDALPEMVSPGTKRRLGEYFDNNPISEGHHHHHH,not soluble
